Test results as given in US20230068663A1 (University of Texas, published 2023).

Experiments:
LILRA2 = biological target: T1, LILRA2; test: flow cytometry, reporter cells
T1 construct: also called LILRA2 reporter cells; not shown: transmembrane/intracellular domains of PILRb, the display part of the chimeric reporter receptor
Method: (§1) FIG. 29. Binding of LILRB2 antibodies on reporter cell line expressing ectodomain of LILR family proteins on cell surface. Bound antibodies were detected with anti-human Fc-specific secondary antibody (2nd Ab) conjugated to AF647. […] All incubations were performed for 30 minutes at 4° C. Data shown is mean fluorescence intensity after sample acquisition in flow cytometer.

LILRB5 = biological target: T2, LILRB5; test: flow cytometry, reporter cells
T2 construct: also called LILRB5 reporter cells; not shown: transmembrane/intracellular domains of PILRb, the display part of the chimeric reporter receptor
Method: as §1

[1] = biological target: T3, LILRB2 chimeric receptor on LILRB2 reporter cells (extracellular domain of LILRB2 fused with … (UniProt Q8N423 22-460)); test: flow cytometry, reporter cells
T3 construct: extracellular domain;domain: transmembrane/intracellular domains; associates with DAP12; also called LILRB2-expressing reporter cells
Method: as §1

LILRB4 = biological target: T4, LILRB4; test: flow cytometry, reporter cells
T4 construct: also called LILRB4 reporter cells; not shown: transmembrane/intracellular domains of PILRb, the display part of the chimeric reporter receptor
Method: as §1

LILRA3 = biological target: T5, LILRA3; test: flow cytometry, reporter cells
T5 construct: also called LILRA3 reporter cells; not shown: transmembrane/intracellular domains of PILRb, the display part of the chimeric reporter receptor
Method: as §1

LILRB3 = biological target: T6, LILRB3; test: flow cytometry, reporter cells
T6 construct: also called LILRB3 reporter cells; not shown: transmembrane/intracellular domains of PILRb, the display part of the chimeric reporter receptor
Method: as §1

LAIR1 on reporter cells = biological target: T7, LAIR1 on reporter cells (UniProt Q6GTX8 22-165, limits assumed); test: flow cytometry, reporter cells
T7 sequence (looked up): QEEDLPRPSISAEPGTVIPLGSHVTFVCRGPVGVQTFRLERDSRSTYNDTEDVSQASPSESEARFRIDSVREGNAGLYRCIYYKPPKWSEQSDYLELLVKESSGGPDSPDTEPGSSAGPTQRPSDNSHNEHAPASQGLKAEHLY
Method: as §1

LILRA5 = biological target: T8, LILRA5; test: flow cytometry, reporter cells
T8 construct: also called LILRA5 reporter cells
Method: as §1

LILRA4 = biological target: T9, LILRA4; test: flow cytometry, reporter cells
T9 construct: also called LILRA4 reporter cells
Method: as §1

LILRB1 = biological target: T10, LILRB1; test: flow cytometry, reporter cells
T10 construct: also called LILRB1 reporter cells; not shown: transmembrane/intracellular domains of PILRb, the display part of the chimeric reporter receptor
Method: as §1

[2] = biological target: T11, LILRA1 on reporter cells (extracellular domain) (UniProt O75019 17-461, limits assumed); test: flow cytometry, reporter cells
T11 construct: extracellular domain
Method: as §1

LILRA6 = biological target: T12, LILRA6; test: flow cytometry, reporter cells
T12 construct: also called LILRA6 reporter cells
Method: as §1

[3] = biological target: T3, LILRB2 chimeric receptor on LILRB2 …; test: flow cytometry on LILRB2 reporter cells, APC anti-human IgG
Source text: FIGS. 1A-C. Screening specific monoclonal antibodies for LILRB2. […] Binding of monoclonal antibodies was screened using flow cytometer on LILRB2 reporter cells. Bound antibodies were detected with Allophycocyanin (APC)-labeled goat anti-human IgG secondary antibody. (FIG. 1B) Quantification of binding ability of monoclonal antibodies to LILRB2 reporter cells.
Screening specific monoclonal antibodies for LILRB2. The inventors employed a stable reporter cell system to detect the binding ability of selected monoclonal antibodies to LILRB2. In this chimeric receptor reporter system, the extracellular domain (ECD) of LILRB2 is fused with transmembrane/intracellular domains of PILRb that associates with the adaptor protein DAP12 containing an immunoreceptor tyrosine-based activation motif. 27 monoclonal antibodies were screened. The LILRB2 reporter cells were incubated with selected monoclonal antibody, then labeled with (APC) goat anti-human IgG secondary antibody. […] The inventors generated LILRBAs and LILRBs reporters stably transduced with each receptor's extracellular domain (ECD).

LILRB2-His antigen = biological target: T13, LILRB2-His antigen (UniProt Q8N423 22-460, limits assumed); test: indirect ELISA, coated LILRB2-His
T13 construct: Coated on ELISA plates; also used for phage panning; also called LILRB2 antigen; not shown: His tag
Method: ELISA binding EC of LILRB2 antibodies. The ELISA binding EC₅₀ of these 24 antibodies were measured by indirect ELISA. […] After incubation, HRP-conjugated goat anti-human Fc secondary antibody was incubated with the plates. The TMB substrate was added for color development and measurement of absorbance at 450 nm.

[4] = biological target: T3, LILRB2 chimeric receptor on LILRB2 …; test: cell-based or functional assay
[5] = biological target: T14, LILRB2 (antigen in solution, Octet RED 96) (UniProt Q8N423 22-460, limits assumed); test: BLI (Octet RED 96), antibody on protein A biosensor, LILRB2 in solution
T14 construct: also called LILRB2 solution
Method: Affinity measurement of blocking antibodies. Affinities of the 5 blocking antibodies were measured on Octet RED 96 system.

[6] = biological target: T15, endogenous LILRB2 on human myeloid cells / primary monocytes (human, UniProt Q8N423 22-597); test: flow cytometry, CD14+CD16- monocytes, AF647-conjugated antibody
T15 construct: whole, on cells; also called cells expressing endogenous LILRB2
Method: FIG. 32. Binding of LILRB2 antibodies on CD14⁺CD16-monocytes isolated from human PBMC from healthy donors. Fifty thousand cells were incubated for 30 minutes at 4° C. with a dilution series (40-0.0006 μg/mL) of LILRB2 antibodies directly conjugated to AF647 in a final volume of 100 μL. Data shown is averaged geometric mean of fluorescence intensity from duplicate samples acquired in a flow cytometer (BD FACS Celesta) from one donor and is representative of 2 experiments with cells isolated from different donors.

T9 sequence (chain, as listed by the source limits assumed): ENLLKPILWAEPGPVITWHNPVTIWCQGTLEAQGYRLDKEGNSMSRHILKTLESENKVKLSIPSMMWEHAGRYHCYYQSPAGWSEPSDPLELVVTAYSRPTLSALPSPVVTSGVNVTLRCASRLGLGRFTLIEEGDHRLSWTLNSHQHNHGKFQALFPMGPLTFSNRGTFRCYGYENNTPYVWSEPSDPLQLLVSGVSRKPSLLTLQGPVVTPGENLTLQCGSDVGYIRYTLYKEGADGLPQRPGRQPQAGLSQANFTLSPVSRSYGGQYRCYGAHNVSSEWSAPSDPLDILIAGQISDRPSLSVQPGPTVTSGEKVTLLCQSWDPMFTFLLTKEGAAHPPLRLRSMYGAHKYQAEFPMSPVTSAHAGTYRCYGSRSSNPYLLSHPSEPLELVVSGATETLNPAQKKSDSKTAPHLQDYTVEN
T11 sequence (O75019 17-461 limits assumed): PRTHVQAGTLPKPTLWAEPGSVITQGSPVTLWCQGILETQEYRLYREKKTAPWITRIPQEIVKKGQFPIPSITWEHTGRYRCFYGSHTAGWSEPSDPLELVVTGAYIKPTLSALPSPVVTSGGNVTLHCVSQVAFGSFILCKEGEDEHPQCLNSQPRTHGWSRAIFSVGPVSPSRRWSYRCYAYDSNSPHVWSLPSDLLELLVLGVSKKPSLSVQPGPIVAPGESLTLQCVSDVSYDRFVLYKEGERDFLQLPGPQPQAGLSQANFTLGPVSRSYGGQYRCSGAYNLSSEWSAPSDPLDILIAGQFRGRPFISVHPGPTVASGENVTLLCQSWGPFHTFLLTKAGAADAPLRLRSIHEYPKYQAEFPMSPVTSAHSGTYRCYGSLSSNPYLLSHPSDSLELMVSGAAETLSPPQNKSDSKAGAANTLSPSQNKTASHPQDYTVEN
T1 sequence (chain, as listed by the source limits assumed): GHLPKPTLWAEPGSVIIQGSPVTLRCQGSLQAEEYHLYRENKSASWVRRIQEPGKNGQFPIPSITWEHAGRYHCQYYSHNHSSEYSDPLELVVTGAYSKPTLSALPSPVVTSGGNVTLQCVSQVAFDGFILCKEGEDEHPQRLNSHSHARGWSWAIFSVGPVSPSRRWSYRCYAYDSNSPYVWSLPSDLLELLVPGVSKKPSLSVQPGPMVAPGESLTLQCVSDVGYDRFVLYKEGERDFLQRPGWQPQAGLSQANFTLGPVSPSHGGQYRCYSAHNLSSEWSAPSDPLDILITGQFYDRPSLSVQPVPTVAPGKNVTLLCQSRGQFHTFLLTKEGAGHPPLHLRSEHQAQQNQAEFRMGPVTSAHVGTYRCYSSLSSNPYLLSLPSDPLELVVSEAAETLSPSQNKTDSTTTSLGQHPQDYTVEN
T8 sequence (chain, as listed by the source limits assumed): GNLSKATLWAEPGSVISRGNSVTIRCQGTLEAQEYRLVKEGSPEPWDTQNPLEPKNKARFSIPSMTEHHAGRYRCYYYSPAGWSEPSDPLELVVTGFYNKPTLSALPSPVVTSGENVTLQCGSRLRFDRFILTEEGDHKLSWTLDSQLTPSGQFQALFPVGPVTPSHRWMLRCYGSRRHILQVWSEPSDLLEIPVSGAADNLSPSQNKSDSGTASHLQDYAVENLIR
T5 sequence (chain, as listed by the source limits assumed): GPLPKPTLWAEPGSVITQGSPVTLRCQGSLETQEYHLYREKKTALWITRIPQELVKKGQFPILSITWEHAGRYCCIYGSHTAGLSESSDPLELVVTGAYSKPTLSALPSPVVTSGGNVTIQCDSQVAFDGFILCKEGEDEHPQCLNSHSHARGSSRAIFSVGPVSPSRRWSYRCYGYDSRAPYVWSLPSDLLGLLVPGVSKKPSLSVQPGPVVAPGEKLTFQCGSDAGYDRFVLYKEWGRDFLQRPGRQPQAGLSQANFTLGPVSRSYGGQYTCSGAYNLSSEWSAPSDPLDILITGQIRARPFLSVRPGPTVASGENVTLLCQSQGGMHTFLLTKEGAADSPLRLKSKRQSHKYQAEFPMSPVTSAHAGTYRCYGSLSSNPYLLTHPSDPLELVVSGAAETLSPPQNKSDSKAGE
T12 sequence (chain, as listed by the source limits assumed): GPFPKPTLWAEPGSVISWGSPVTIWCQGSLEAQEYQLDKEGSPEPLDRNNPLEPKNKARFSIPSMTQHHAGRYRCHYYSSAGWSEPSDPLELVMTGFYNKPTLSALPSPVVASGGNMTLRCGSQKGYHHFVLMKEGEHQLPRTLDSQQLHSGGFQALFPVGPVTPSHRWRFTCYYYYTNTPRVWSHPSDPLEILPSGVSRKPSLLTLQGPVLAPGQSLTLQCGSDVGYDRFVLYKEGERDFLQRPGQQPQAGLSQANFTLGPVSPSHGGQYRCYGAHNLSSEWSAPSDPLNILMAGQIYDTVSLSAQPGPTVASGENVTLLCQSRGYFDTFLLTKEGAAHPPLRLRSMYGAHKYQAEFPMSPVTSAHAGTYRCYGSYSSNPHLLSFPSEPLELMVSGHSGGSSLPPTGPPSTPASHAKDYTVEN
T2 sequence (chain, as listed by the source limits assumed): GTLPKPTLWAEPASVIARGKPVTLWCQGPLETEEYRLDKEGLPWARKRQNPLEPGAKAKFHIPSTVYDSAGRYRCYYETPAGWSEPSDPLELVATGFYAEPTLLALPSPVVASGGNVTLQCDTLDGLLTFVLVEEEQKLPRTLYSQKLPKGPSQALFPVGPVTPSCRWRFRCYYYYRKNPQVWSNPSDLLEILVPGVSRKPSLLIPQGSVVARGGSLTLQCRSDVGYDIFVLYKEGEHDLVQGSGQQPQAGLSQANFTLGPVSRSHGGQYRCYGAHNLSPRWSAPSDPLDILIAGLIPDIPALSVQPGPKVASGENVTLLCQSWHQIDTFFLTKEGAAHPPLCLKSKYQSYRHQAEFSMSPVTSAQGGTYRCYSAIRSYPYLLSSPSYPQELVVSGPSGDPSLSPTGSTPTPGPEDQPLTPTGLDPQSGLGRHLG
T10 sequence (chain, as listed by the source limits assumed): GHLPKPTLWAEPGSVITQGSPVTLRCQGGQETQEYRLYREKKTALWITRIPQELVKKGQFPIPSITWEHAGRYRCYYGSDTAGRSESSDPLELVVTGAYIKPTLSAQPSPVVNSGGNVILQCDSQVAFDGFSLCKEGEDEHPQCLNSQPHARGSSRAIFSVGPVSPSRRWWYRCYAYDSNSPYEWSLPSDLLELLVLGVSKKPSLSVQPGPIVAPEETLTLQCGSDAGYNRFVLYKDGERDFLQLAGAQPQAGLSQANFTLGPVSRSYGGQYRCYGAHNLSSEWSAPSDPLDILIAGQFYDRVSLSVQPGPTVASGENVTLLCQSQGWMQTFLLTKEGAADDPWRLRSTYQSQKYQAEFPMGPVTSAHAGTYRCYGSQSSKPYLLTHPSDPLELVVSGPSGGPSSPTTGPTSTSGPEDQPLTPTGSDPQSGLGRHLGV

B1: B2-17 (antibody, V domains shown)
VH: EVQLLDSGPRLLKPSETLSLTCGVSGVSTSSTHWWSWVRQTPGKGLEWIGEILHNGNTNSNPSLKSRVSMSIDKSRNQFSLQLKSMTAADTAVYYCASASPNWGASGAFDAWAQGTMVTVSS
VL: QSVLTQPPSASATPGQRVTISCSGSSSNIGSNPVNWYQQVPGMAPELVMYSDNQRPSGVPDRFSGSNSGTSASLAISGLQSEDEADYYCSTWDDSLNGLVFGTGTKVTVL
notes: also called B2-17_HC; B2-17_LC
MFI (LILRA2): 10 | binding result (LILRA2): no binding | MFI (LILRB5): 10 | binding result (LILRB5): no binding | MFI [1]: 1100 | MFI (LILRB4): 13 | binding result (LILRB4): no binding | MFI (LILRA3): 10 | binding result (LILRA3): no binding | MFI (LILRB3): 10 | binding result (LILRB3): no binding | MFI (LAIR1 on reporter cells): 23 | binding result (LAIR1 on reporter cells): no binding | MFI (LILRA5): 10 | binding result (LILRA5): no binding | MFI (LILRA4): 10 | binding result (LILRA4): no binding | MFI (LILRB1): 9 | binding result (LILRB1): no binding | MFI [2]: 11 | binding result [2]: no binding | MFI (LILRA6): 11 | binding result (LILRA6): no binding | percent of LILRB2 reporter cells labeled [3]: > 95% | EC50 (LILRB2-His antigen): 24.6 nM | Blocking potency (IC50) of GFP expression in LILRB2 reporter cells induced by coated ANGPTL2 [4]: 0.405 µg/mL | Kd [5]: 35.9 nM | koff [5]: 0.0121 s⁻¹ | kon [5]: 338000 M⁻¹ s⁻¹ | EC50 [6]: > 10 µg/mL

B2: B2-15 (antibody, V domains shown)
VH: EVQLVQSGAEVKKSGASVKVSCKSSGYTFTNYGISWVRQAPGQGLEWMGWISGDAGDTKFAQKFQGRVTMTTDTSTTTTYMELRSLRSDDTAVYYCARDGEYIPMFRGFDNYYGLDVWGQGTLVSVSS
VL: QSVLTQPPSASATPGQRVTISCSGRNANIGSNPVNWYQQLPGTAPRLVMYSNNQRPSGVPDRFSGSKSGTSASLAISGLQSEDEADYYCEGWDDSLNGYVFGTGTKVTVL
notes: also called B-15; B2-15_HC
MFI (LILRA2): 10 | binding result (LILRA2): no binding | MFI (LILRB5): 11 | binding result (LILRB5): no binding | MFI [1]: 910 | MFI (LILRB4): 14 | binding result (LILRB4): no binding | MFI (LILRA3): 10 | binding result (LILRA3): no binding | MFI (LILRB3): 9 | binding result (LILRB3): no binding | MFI (LAIR1 on reporter cells): 22 | binding result (LAIR1 on reporter cells): no binding | MFI (LILRA5): 11 | binding result (LILRA5): no binding | MFI (LILRA4): 9 | binding result (LILRA4): no binding | MFI (LILRB1): 9 | binding result (LILRB1): no binding | MFI [2]: 10 | binding result [2]: no binding | MFI (LILRA6): 10 | binding result (LILRA6): no binding | percent of LILRB2 reporter cells labeled [3]: > 95% | EC50 (LILRB2-His antigen): 46.5 nM | Blocking potency (IC50) of GFP expression in LILRB2 reporter cells induced by coated ANGPTL2 [4]: 0.341 µg/mL | Kd [5]: 18.9 nM | koff [5]: 0.00565 s⁻¹ | kon [5]: 299000 M⁻¹ s⁻¹ | EC50 [6]: 0.056 µg/mL
